In paper PMC12416549 (2024):

T1: TNFR1 (Homo sapiens, UniProt P19438)
T1 chain: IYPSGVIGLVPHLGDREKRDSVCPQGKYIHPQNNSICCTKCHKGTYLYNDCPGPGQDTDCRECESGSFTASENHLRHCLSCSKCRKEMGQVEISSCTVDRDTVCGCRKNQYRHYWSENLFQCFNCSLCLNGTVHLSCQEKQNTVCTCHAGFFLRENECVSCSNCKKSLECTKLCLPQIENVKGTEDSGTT


Target: T1, TNFR1
Assay: yeast display SC50

Binder | apparent Kd (screen) [nM]
E103P (designed binder) SMEEEVEKAAKEYEKKKKEAIEKHLEKLKAKDKEAAERFLKELEEAAKEYAKDEAKTMSEEEAKRRAKKYKEKVLLSELSEEEQKEIKEAEEKLVRTILKYVPEAAK | 0.49
E86D (designed binder) SMEEEVEKAAKEYEKKKKEAIEKHLEKLKAKDKEAAERFLKELEEAAKEYAKDEAKTMSEEEAKRRAKKYKEKVLLSELSEEEQKDIKEAEEKLVRTILKYVEEAAK | 0.49
V6M (designed binder) SMEEEMEKAAKEYEKKKKEAIEKHLEKLKAKDKEAAERFLKELEEAAKEYAKDEAKTMSEEEAKRRAKKYKEKVLLSELSEEEQKEIKEAEEKLVRTILKYVEEAAK | 2.73
K23M (designed binder) SMEEEVEKAAKEYEKKKKEAIEMHLEKLKAKDKEAAERFLKELEEAAKEYAKDEAKTMSEEEAKRRAKKYKEKVLLSELSEEEQKEIKEAEEKLVRTILKYVEEAAK | 0.869
M2W (designed binder) SWEEEVEKAAKEYEKKKKEAIEKHLEKLKAKDKEAAERFLKELEEAAKEYAKDEAKTMSEEEAKRRAKKYKEKVLLSELSEEEQKEIKEAEEKLVRTILKYVEEAAK | 0.446
E92P (designed binder) SMEEEVEKAAKEYEKKKKEAIEKHLEKLKAKDKEAAERFLKELEEAAKEYAKDEAKTMSEEEAKRRAKKYKEKVLLSELSEEEQKEIKEAEPKLVRTILKYVEEAAK | 7.78
H24R (designed binder) SMEEEVEKAAKEYEKKKKEAIEKRLEKLKAKDKEAAERFLKELEEAAKEYAKDEAKTMSEEEAKRRAKKYKEKVLLSELSEEEQKEIKEAEEKLVRTILKYVEEAAK | 1.05
E62N (designed binder) SMEEEVEKAAKEYEKKKKEAIEKHLEKLKAKDKEAAERFLKELEEAAKEYAKDEAKTMSEENAKRRAKKYKEKVLLSELSEEEQKEIKEAEEKLVRTILKYVEEAAK | 0.49
A46I (designed binder) SMEEEVEKAAKEYEKKKKEAIEKHLEKLKAKDKEAAERFLKELEEIAKEYAKDEAKTMSEEEAKRRAKKYKEKVLLSELSEEEQKEIKEAEEKLVRTILKYVEEAAK | 3
E61L (designed binder) SMEEEVEKAAKEYEKKKKEAIEKHLEKLKAKDKEAAERFLKELEEAAKEYAKDEAKTMSELEAKRRAKKYKEKVLLSELSEEEQKEIKEAEEKLVRTILKYVEEAAK | 1.69
E92N (designed binder) SMEEEVEKAAKEYEKKKKEAIEKHLEKLKAKDKEAAERFLKELEEAAKEYAKDEAKTMSEEEAKRRAKKYKEKVLLSELSEEEQKEIKEAENKLVRTILKYVEEAAK | 1.05
E86A (designed binder) SMEEEVEKAAKEYEKKKKEAIEKHLEKLKAKDKEAAERFLKELEEAAKEYAKDEAKTMSEEEAKRRAKKYKEKVLLSELSEEEQKAIKEAEEKLVRTILKYVEEAAK | 0.653
E19H (designed binder) SMEEEVEKAAKEYEKKKKHAIEKHLEKLKAKDKEAAERFLKELEEAAKEYAKDEAKTMSEEEAKRRAKKYKEKVLLSELSEEEQKEIKEAEEKLVRTILKYVEEAAK | 0.49
A36G (designed binder) SMEEEVEKAAKEYEKKKKEAIEKHLEKLKAKDKEAGERFLKELEEAAKEYAKDEAKTMSEEEAKRRAKKYKEKVLLSELSEEEQKEIKEAEEKLVRTILKYVEEAAK | 0.446
E42T (designed binder) SMEEEVEKAAKEYEKKKKEAIEKHLEKLKAKDKEAAERFLKTLEEAAKEYAKDEAKTMSEEEAKRRAKKYKEKVLLSELSEEEQKEIKEAEEKLVRTILKYVEEAAK | 9.41
L79D (designed binder) SMEEEVEKAAKEYEKKKKEAIEKHLEKLKAKDKEAAERFLKELEEAAKEYAKDEAKTMSEEEAKRRAKKYKEKVLLSEDSEEEQKEIKEAEEKLVRTILKYVEEAAK | 16.7
E82S (designed binder) SMEEEVEKAAKEYEKKKKEAIEKHLEKLKAKDKEAAERFLKELEEAAKEYAKDEAKTMSEEEAKRRAKKYKEKVLLSELSESEQKEIKEAEEKLVRTILKYVEEAAK | 0.49
E44W (designed binder) SMEEEVEKAAKEYEKKKKEAIEKHLEKLKAKDKEAAERFLKELWEAAKEYAKDEAKTMSEEEAKRRAKKYKEKVLLSELSEEEQKEIKEAEEKLVRTILKYVEEAAK | 3.3

Binder | apparent Kd (screen) [nM]
I98A (designed binder) SMEEEVEKAAKEYEKKKKEAIEKHLEKLKAKDKEAAERFLKELEEAAKEYAKDEAKTMSEEEAKRRAKKYKEKVLLSELSEEEQKEIKEAEEKLVRTALKYVEEAAK | 1.69
E5Y (designed binder) SMEEYVEKAAKEYEKKKKEAIEKHLEKLKAKDKEAAERFLKELEEAAKEYAKDEAKTMSEEEAKRRAKKYKEKVLLSELSEEEQKEIKEAEEKLVRTILKYVEEAAK | 1.54
L43G (designed binder) SMEEEVEKAAKEYEKKKKEAIEKHLEKLKAKDKEAAERFLKEGEEAAKEYAKDEAKTMSEEEAKRRAKKYKEKVLLSELSEEEQKEIKEAEEKLVRTILKYVEEAAK | 1.4
K107N (designed binder) SMEEEVEKAAKEYEKKKKEAIEKHLEKLKAKDKEAAERFLKELEEAAKEYAKDEAKTMSEEEAKRRAKKYKEKVLLSELSEEEQKEIKEAEEKLVRTILKYVEEAAN | 1.54
S80F (designed binder) SMEEEVEKAAKEYEKKKKEAIEKHLEKLKAKDKEAAERFLKELEEAAKEYAKDEAKTMSEEEAKRRAKKYKEKVLLSELFEEEQKEIKEAEEKLVRTILKYVEEAAK | 2.73
L76M (designed binder) SMEEEVEKAAKEYEKKKKEAIEKHLEKLKAKDKEAAERFLKELEEAAKEYAKDEAKTMSEEEAKRRAKKYKEKVLMSELSEEEQKEIKEAEEKLVRTILKYVEEAAK | 0.869
E14F (designed binder) SMEEEVEKAAKEYFKKKKEAIEKHLEKLKAKDKEAAERFLKELEEAAKEYAKDEAKTMSEEEAKRRAKKYKEKVLLSELSEEEQKEIKEAEEKLVRTILKYVEEAAK | 29.5
A30H (designed binder) SMEEEVEKAAKEYEKKKKEAIEKHLEKLKHKDKEAAERFLKELEEAAKEYAKDEAKTMSEEEAKRRAKKYKEKVLLSELSEEEQKEIKEAEEKLVRTILKYVEEAAK | 0.869
I21C (designed binder) SMEEEVEKAAKEYEKKKKEACEKHLEKLKAKDKEAAERFLKELEEAAKEYAKDEAKTMSEEEAKRRAKKYKEKVLLSELSEEEQKEIKEAEEKLVRTILKYVEEAAK | 0.49
D53C (designed binder) SMEEEVEKAAKEYEKKKKEAIEKHLEKLKAKDKEAAERFLKELEEAAKEYAKCEAKTMSEEEAKRRAKKYKEKVLLSELSEEEQKEIKEAEEKLVRTILKYVEEAAK | 2.73
L40Y (designed binder) SMEEEVEKAAKEYEKKKKEAIEKHLEKLKAKDKEAAERFYKELEEAAKEYAKDEAKTMSEEEAKRRAKKYKEKVLLSELSEEEQKEIKEAEEKLVRTILKYVEEAAK | 0.869
K100G (designed binder) SMEEEVEKAAKEYEKKKKEAIEKHLEKLKAKDKEAAERFLKELEEAAKEYAKDEAKTMSEEEAKRRAKKYKEKVLLSELSEEEQKEIKEAEEKLVRTILGYVEEAAK | 0.277
A47R (designed binder) SMEEEVEKAAKEYEKKKKEAIEKHLEKLKAKDKEAAERFLKELEEARKEYAKDEAKTMSEEEAKRRAKKYKEKVLLSELSEEEQKEIKEAEEKLVRTILKYVEEAAK | 0.49
K18Y (designed binder) SMEEEVEKAAKEYEKKKYEAIEKHLEKLKAKDKEAAERFLKELEEAAKEYAKDEAKTMSEEEAKRRAKKYKEKVLLSELSEEEQKEIKEAEEKLVRTILKYVEEAAK | 1.05
E60S (designed binder) SMEEEVEKAAKEYEKKKKEAIEKHLEKLKAKDKEAAERFLKELEEAAKEYAKDEAKTMSSEEAKRRAKKYKEKVLLSELSEEEQKEIKEAEEKLVRTILKYVEEAAK | 1.54
V95K (designed binder) SMEEEVEKAAKEYEKKKKEAIEKHLEKLKAKDKEAAERFLKELEEAAKEYAKDEAKTMSEEEAKRRAKKYKEKVLLSELSEEEQKEIKEAEEKLKRTILKYVEEAAK | 3.63
K11S (designed binder) SMEEEVEKAASEYEKKKKEAIEKHLEKLKAKDKEAAERFLKELEEAAKEYAKDEAKTMSEEEAKRRAKKYKEKVLLSELSEEEQKEIKEAEEKLVRTILKYVEEAAK | 0.49
